Paper PMC9709061

Target: HSP90β (human) (UniProt P08238)
Experiment: cryo-EM structure; HSP90–CDC37–BRAF^V600E complex incubated with PP5 D274N, purified by SEC, cross-linked with 1 mM BS3; one sample gave three classes: HCK (3.4 Å), HCK-P open (4.2 Å), HCK-P closed (3.9 Å); PP5 modelled by rigid-body docking

**Q.** Which stoichiometry N does the source give for “HSP90β, P08238 1-724 (natural protein; phosphorylation at Ser226 and Ser255 found by mass spectrometry; phosphorylation at Ser226 and Ser255 found by mass spectrometry; other documents disagree on this pair)” here?
**A.** Its stoichiometry N is 2.
